Experimental data as given in US20190177417A1 (BIOATLA, published 2019).
Where a chain is given by its changes, count along the chain named. Names and notes keep the numbering of the source.

T1: Axl protein (human, UniProt P30530 26-451)
T1 construct: extracellular domain; also called human Axl; hAxl
T1 sequence (looked up): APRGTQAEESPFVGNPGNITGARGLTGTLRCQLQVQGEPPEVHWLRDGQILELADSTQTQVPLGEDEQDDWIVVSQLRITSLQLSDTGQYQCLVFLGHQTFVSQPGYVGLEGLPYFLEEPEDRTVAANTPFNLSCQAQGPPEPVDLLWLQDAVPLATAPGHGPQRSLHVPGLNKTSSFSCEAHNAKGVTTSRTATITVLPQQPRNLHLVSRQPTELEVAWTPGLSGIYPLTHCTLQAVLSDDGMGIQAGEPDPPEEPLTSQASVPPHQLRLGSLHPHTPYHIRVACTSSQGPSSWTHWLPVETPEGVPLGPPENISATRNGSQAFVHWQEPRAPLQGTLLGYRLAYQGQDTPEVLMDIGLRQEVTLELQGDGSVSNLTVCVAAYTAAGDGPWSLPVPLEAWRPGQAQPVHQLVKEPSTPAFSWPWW

B1: LC-F092N (antibody, V domains shown)
VH: EVQLVQSGAEVKKPGATVKISCKVSGYSFTGHTMNWIRQPPGKGLEWIGLIKPSNGGTSYNQKFKGRVTISADKSISTAYLQWSSLKASDTAMYYCAHGHYESYFAMDYWGQGTLVTVSS
VL: DIQMTQSPSSLSASVGDRVTITCKASQDVSSAVAWYQQKPGQAPRLLIYWASTRHTGVPSRFSGSGSGTEFTLTISSLQPDDFATYYCQEHNSTPLTFGQGTKVEIK
B2: LC-P095K (antibody, V domains shown)
VH: B1 VH
VL: B1 VL with N92F, P95K
B3: LC-P095C (antibody, V domains shown)
VH: B1 VH
VL: B1 VL with N92F, P95C
B4: LC-F092S (antibody, V domains shown)
VH: B1 VH
VL: B1 VL with N92S
B5: LC-P095W (antibody, V domains shown)
VH: B1 VH
VL: B1 VL with N92F, P95W
B6: LC-P095E (antibody, V domains shown)
VH: B1 VH
VL: B1 VL with N92F, P95E
B7: LC-P095V (antibody, V domains shown)
VH: B1 VH
VL: B1 VL with N92F, P95V
B8: LC-H091L (antibody, V domains shown)
VH: B1 VH
VL: B1 VL with H91L, N92F
B9: LC-L096G (antibody, V domains shown)
VH: B1 VH
VL: B1 VL with N92F, L96G
B10: LC-P095D (antibody, V domains shown)
VH: B1 VH
VL: B1 VL with N92F, P95D
B11: LC-H091I (antibody, V domains shown)
VH: B1 VH
VL: B1 VL with H91I, N92F
B12: LC-H091F (antibody, V domains shown)
VH: B1 VH
VL: B1 VL with H91F, N92F
B13: LC-P095S (antibody, V domains shown)
VH: B1 VH
VL: B1 VL with N92F, P95S
B14: LC-L096R (antibody, V domains shown)
VH: B1 VH
VL: B1 VL with N92F, L96R
B15: LC-W050F (antibody, V domains shown)
VH: B1 VH
VL: B1 VL with W50F, N92F
B16: LC-A051N (antibody, V domains shown)
VH: B1 VH
VL: B1 VL with A51N, N92F
B17: LC-A051P (antibody, V domains shown)
VH: B1 VH
VL: B1 VL with A51P, N92F
B18: LC-A051I (antibody, V domains shown)
VH: B1 VH
VL: B1 VL with A51I, N92F
B19: LC-P095H (antibody, V domains shown)
VH: B1 VH
VL: B1 VL with N92F, P95H
B20: LC-P095T (antibody, V domains shown)
VH: B1 VH
VL: B1 VL with N92F, P95T
B21: LC-P095A (antibody, V domains shown)
VH: B1 VH
VL: B1 VL with N92F, P95A
B22: LC-H091C (antibody, V domains shown)
VH: B1 VH
VL: B1 VL with H91C, N92F
B23: LC-T094C (antibody, V domains shown)
VH: B1 VH
VL: B1 VL with N92F, T94C
B24: LC-H091Q (antibody, V domains shown)
VH: B1 VH
VL: B1 VL with H91Q, N92F
B25: LC-T097I (antibody, V domains shown)
VH: B1 VH
VL: B1 VL with N92F, T97I

What follows are binders tested against T1, Axl protein (assay: ELISA, 1:3 dilution, pH 6.0 over pH 7.4).

| Affinity ELISA CPE mutant ratio (1:3, pH 6.0/7.4) | Binder |
| --- | --- |
| 1.93 ratio | B1 |
| 3.84 ratio | B2 |
| 2.35 ratio | B3 |
| 3.18 ratio | B4 |
| 2.15 ratio | B5 |
| 7.12 ratio | B6 |
| 1.87 ratio | B7 |
| 2.8 ratio | B8 |
| 2.17 ratio | B9 |
| 3.95 ratio | B10 |
| 1.55 ratio | B11 |
| 1.6 ratio | B12 |
| 2.84 ratio | B13 |
| 2.88 ratio | B14 |
| 2.25 ratio | B15 |
| 1.41 ratio | B16 |
| 1.92 ratio | B17 |
| 2.24 ratio | B18 |
| 2.5 ratio | B19 |
| 2.5 ratio | B20 |
| 2.52 ratio | B21 |
| 4 ratio | B22 |
| 1.42 ratio | B23 |
| 1.77 ratio | B24 |
| 3.09 ratio | B25 |

The binders below were run against T1, Axl protein (assay: ELISA, 1:9 dilution, pH 6.0 over pH 7.4).

| Affinity ELISA CPE mutant ratio (1:9, pH 6.0/7.4) | Binder |
| --- | --- |
| 2 ratio | B1 |
| 3.47 ratio | B2 |
| 2.63 ratio | B3 |
| 2.94 ratio | B4 |
| 2.26 ratio | B5 |
| 7.51 ratio | B6 |
| 2.13 ratio | B7 |
| 2.08 ratio | B8 |
| 2.44 ratio | B9 |
| 2.89 ratio | B10 |
| 2.15 ratio | B11 |
| 2.12 ratio | B12 |
| 3.51 ratio | B13 |
| 2.18 ratio | B14 |
| 3.5 ratio | B15 |
| 2.2 ratio | B16 |
| 1.57 ratio | B17 |
| 2.14 ratio | B18 |
| 2.75 ratio | B19 |
| 2.09 ratio | B20 |
| 2.99 ratio | B21 |
| 3.02 ratio | B22 |
| 1.77 ratio | B23 |
| 2.01 ratio | B24 |
| 4.05 ratio | B25 |
